This series is described as follows: soluble on expression in E. coli; label from the status in PepcDB or PDB records.
With “GAGTQTAQTQALDSDGIPTGGEWITMFDGKTLNGWRGYCRQDVPLGWVVEDGSITYKGSDNKADTGFGDLIYDKKFKNFVFEIEWKIDKAGNSGIFYTAQEIEGTPIYYSSPEYQLLDNENMPDAWEGCDGNRQAGAVYDMIMPDPQPVKPYGNWNKTRIVVYNQRVIHYMNDVKILEFQFGTPVWRALVDHSKFSKFSTSPEKCPEAYDLMLQCGKQPGYIGMQDHGYGVCFRNIRIKEL”, the “soluble on expression in E. coli” value is given as “soluble”.

Turning to “MGSDKIHHHHHHMKKIGHRIKTRRKLKGLTQEALGLAVGVSKVSVSSWELGKNSMHPELLNKVAGVLGVDAHWLLTGESFATLEDEKDSVFWAPKYKNIKAAAGAGCCHDDCLDEDEDEVPIPIKFVKNQTNKDQIFCVCVSGDSMEPVLSDGSIIAMNSSDTIIKDGKMYLVKQDDLLRVKVIHLLPKDMVLKSYNPNFKDETYNIKKDNIQILGRVFWFTSGR”, the “soluble on expression in E. coli” value is listed as “not soluble”.

As to “MAHHHHHHMGTLEAQTQGPGSMQVKLSQERAKELAENASFIASPGKGILAADESTGTIQKRFDNVGVENTEKNRAEYRSILFTTKGLGKYISGCILFEETLFQQAPNGQNMVDLLRAEGILPGIKVDKGLVTIPNTDEEVSTTGLDGLAERCQKYYNAGARFAKWRAVLSIDVKKNKPSNLSILETAHTLARYAAICQENGLVPIVEPEILADGDHSIEVCAEVTERVLAAVFKALNDHKVLLEGALLKPNMVTQGVDCKDKPAPQTVGFLTSRALRRTVPPALPGVMFLSGGQSESMATRHLNEINKCNKHPWSLSFSYGRALQSSVLKTWNGSMSNAAAAQDVLMKLAQQNSEASLGSLKTDLSDDGESLFEAKYIY”, the “soluble on expression in E. coli” value is recorded as “soluble”.

For the sequence “MGSDKIHHHHHHMKLKQSESFKMDAFSMRVGDIEGVELDRLHALSLSVGWPHRAEDWQFLRNVGRGVVVLDEIGRVQGSAMWFEHGADFATVGMVITSPRLQTLGAAQWLMKRIFDKVGGRDLRLNATRAARRLYLSLDFLPEKTVYQCQGIARLETTGGPTDLRDVRALDPSDIPAAIALDAAGFGVRRAALVEKLFVHSAGYGLFKHDKLNAFALCRPFGRGHVVGPVVAESDADAVAVVRPHVADNSGSFLRIDTHMANGDFAAFLSHSGMTVFDTVLTMSMGKRLADFAVNGTVAPVTYALASQTLG”, the “soluble on expression in E. coli” value is “not soluble”.

“MHTQVHTARLVHTADLDSETRQDIRQMVTGAFAGDFTETDWEHTLGGMHALIWHHGAIIAHAAVIQRRLIYRGNALRCGYVEGVAVRADWRGQRLVSALLDAVEQVMRGAYQLGALSSSARARRLYASRGWLPWHGPTSVLAPTGPVRTPDDDGTVFVLPIDISLDTSAELMCDWRAGDVW”: the “soluble on expression in E. coli” value is “soluble”.

Regarding “MHHHHHHIEGRHMLRPGDCEVCISYLGRFYQDLKDRDVTFSPATIEEELIKFCREARGKENRLCYYIGATDDAATKIINEVSKPLAHHIPVEKICEKLKKKDSQICELKYDKQIDLSTVDLKKLRVKELKKILDDWGEMCKGCAEKSDYIRKINELMPKYAPKAASARTDL”, the “soluble on expression in E. coli” value is “soluble”.

As to “MSLMTDDIDQRLINALMADSRLSLKALAQVSGLSAPSVAERLRKLEERGVIRGYTLDVDPRCFGYQFQAIVRIRPLPGRLHEVERQIQDIAEFTECDKVTGDDCFIARLQVRSMEQLDTLLDRINGYAETNTAIVKKSPVKRRLPPMT”, the “soluble on expression in E. coli” value is listed as “soluble”.

For the sequence “MIRRRHSTTRIDRRPDGLTIYYKRANDDMEEEMLRVSVKPEGKNINDSLRSSKSSSSPPSRNSSLNLKTLKKDRKSKEGKPKSSSKHGKRMTSRAIHVSKKWSQFNRREDKTDYLDDETMQILEDLKILNCKIRKRFQIGTTCPHSLAKTDILSSSQSSKSQKSSTTTSSPVLTAVAYDYRGIPLTAPTVFPGARSEKTRETTRKAARAFARMEKEREDANNSSSRSRKTYQSRSPTGSEDSSPVIKLTRVSSGTRFPGASSPGTRERSRLMLKQCAMKKQLDEIARSLKSSKKSRKSMKSKKEKKSKPASLKTIYSKM”, the “soluble on expression in E. coli” value is reported as “not soluble”.

Consider “MSLSKVFTIGEILVEIMASKIGQPFDQPGIWNGPYPSGAPAIFIDQVTRLGVPCGIISCVGNDGFGDINIHRLAADGVDIRGISVLPLEATGSAFVTYHNSGDRDFIFNIKNAACGKLSAQHVDENILKDCTHFHIMGSSLFSFHMVDAVKKAVTIVKANGGVISFDPNIRKEMLDIPEMRDALHFVLELTDIYMPSEGEVLLLSPHSTPERAIAGFLEEGVKEVIVKRGNQGASYYSANEQFHVESYPVEEVDPTGAGDCFGGAWIACRQLGFDAHRALQYANACGALAVTRRGPMEGTSRLMEIETFIQRHDMSIREAAQEGHHHHHH”, for which the “soluble on expression in E. coli” value is listed as “soluble”.

As for “GSHMQSYQISSRLMAQEGQRTSVQTSSLIQSLFDFRLAALRIHQDSTAKNASLINALVSRDSSRLDEFFSSVDELELSNAPDLRFISSHDNILWDDGNASFYGIAQQELNKLIRRVAISGNWHLVQTPSEGKSVHILMRRSSLIEAGTGQVVGYLYVGIVLNDNFALLENIRSGSNSENLVLAVDTTPLVSTLKGNEPYSLDYVVHSAKDAMRDSFIVGQTFLEVESVPTYLCVYSIQTNQNVLTLRDNESVPTYLCVYSIQTNQNVRHQ”, the “soluble on expression in E. coli” value is “soluble”.

In the case of “MGSDKIHHHHHHMAERVLVPTQIGRGDRYYTYTELLAISRRFKQNPNELMVTWILRVYDQGGPALSLNSGELGLLGDLTHDAIFNYRCKALRGAGCQTLLSWLLQAWRQRWESSLHFEATELPFRPWTTMEEGIQLVRELGMIEWIYLDPEGPVDLAPEDVAFTQGLQRRLLTAAPSELRLSLVSLLVRGMTVLEAVMEIQTIADVGLLWRQSHPGRTKLMLGPNPTRKDLLGWLLSHGVPREQVDRQPTKVLLELYIKEAKRSRGHPNYGLNEEQPPPPPYSDQACGEEQPVRHD”, the “soluble on expression in E. coli” value is “not soluble”.

“TGSGELLLTSPKGSLTLFAYPGKPSLVTVSDFSAGLLDGTVAVNHMDYDLKSKHTETLVQLNGIPIQSLLDLQGASKLSATGTIRGAIPVVLDNNLFSIPEGRMDAEKNGLIIYASTPEERAAAGAGMRLTYEALGNFFYSELVSNIVMTPDGNSTISIQLKGRNPDFQNNRPVNLNLNIQQNLLDLFRSLTLSSDIEEAISKKVLENSGG”: the “soluble on expression in E. coli” value is recorded as “not soluble”.

“MQPWQTDPTRAPVATKIVVAGGFGVGKTTLVTAVSEITPLQTEALMTEASEETDDLTATPGKLTTTVAMDFGRITLDDDLVLYLFGTPGQQRFWFMWDDLVRGAIGAVVLADTRRLKDCWPALDYFESCGLPYVVAVNHFDGSELFEAEDVREALTIPAHIPVMIMDARRRISAIETLLSLVGHALDETPELEHHHHHH”: the “soluble on expression in E. coli” value is listed as “not soluble”.

In the case of “MIMKKEKTYSRAPLPFVGQKRMFVSEFKKILKHFDDKTIFVDLFGGSGLLSHITKRERPDAVVIYNDHDNYRERLENIDRTNTLLRDLRKIVGIYPRHQKITGKMREAFLERIRLEETTGFVDYLTLSTSLLFSGKYAQNMEELEGLYFYNKIRQSDYRCDGYLDGLEVVCYDYKELADTYGVFPGVVFLVDPPYMGTDISTYKMDWKLADYLDVLLVLKGH”, the “soluble on expression in E. coli” value is on record as “not soluble”.

Take “GPGSAPSKDGHVFEMSRPEQAAYGLAMSLVRWHAFNRFCANCGTATDPTRDVGFSRFCPKCRKQHFPQLVPAVLVAVLDGKGNVILSQRRKESKVLTLLSGFVLHGESAEETVRREVEEESGARVSKVRYIGSQPWPYPYLMMMCYYAVADASPSLVVDASELERVMWVSKQDVRRALEGQHSDMELRGPGTTPYAMLKPWVDGKVDDRGRITKPQSQL”: the “soluble on expression in E. coli” value is “not soluble”.

Consider “PSVQVTDGQINGESVRFIAVVPDANNHYPRAAGGEVGLLEGWTLAKVVNETIAADADRPVKRPIVAVIDVPSQAYGRREEAFGIHQALAGAAGAYAKARLAGHPVIGLIVGKAMSGAFLAHGYQANRLIAFNDSGVLVHAMGKASAARITLRTVEALEKLAATIPPMAY”, for which the “soluble on expression in E. coli” value is given as “not soluble”.

Turning to “AQKLSATSRILSSSRGPAPDDIADFFGTDRAAQHITLRRLRLGNGRPYAIDNGWYNSEFAPDLLENDVYNSVYSILDRVYGVPVTQAEQTVTAVAADEDTARLLDVTPGAPLLRILRQSLSGDKPVEWCVSLYRTDRYS”, the “soluble on expression in E. coli” value is recorded as “not soluble”.

Consider “GMRNMQEKGVSEKEILEELKKYRSLDLKYEDGNIFGSMCSNVLPITRKIVDIFLETNLGDPGLFKGTKLLEEKAVALLGSLLNNKDAYGHIVSGGTEANLMALRCIKNIWREKRRKGLSKNEHPKIIVPITAHFSFEKGREMMDLEYIYAPIKEDYTIDEKFVKDAVEDYDVDGIIGIAGTTELGTIDNIEELSKIAKENNIYIHVDAAFGGLVIPFLDDKYKKKGVNYKFDFSLGVDSITIDPHKMGHCPIPSGGILFKDIGYKRYLDVDAPYLTETRQATILGTRVGFGGACTYAVLRYLGREGQRKIVNECMENTLYLYKKLKENNFKPVIEPILNIVAIEDEDYKEVCKKLRDRGIYVSVCNCVKALRIVVMPHIKREHIDNFIEILNSIKRD”, for which the “soluble on expression in E. coli” value is recorded as “soluble”.

Take “MDFDYVIAGGGSAGCTLAARLSEDPSKTVCLIEAGGAGSNLLIRAPAGIIALLPGRPKINNWAFETVPQQGLGGRKGYQPRGKALGGSSAINAMLYTRGHRGDYDEWADLGCDGWSWDEVLPYFRRAEGNQRGADALHGGDGPLRVAEQQEPRPLSRAFVEACGENQIRRNDDFNGVEQEGAGLYQVTQFWGERRNGERCSVAAAYLQPAMNRSNLTVITGAHATAVILDGKRATGVRYRAGKDEAVAKARREVIVCGGAFGSPQLLLLSGIGPAAELAMHGIPVIHELPGVGKNLQDHLDFIMGWTSKDADMMGIGLRGLPGLLRHMLRWRKDGGGMIATPYAEGGAFLKSDPAIERPDLQLHFCIAIVDDHGRKLHMGYGFSCHVCVLRPHSRGEVGLSTHDPMAPPRIDPRFLSDERDAELLLKGVRMMRGILEAPALARYRHKEIYTAGVSSDADLMSHIRARADTIYHPAGTCKMGVDELAVVDPQLRVHGLEALRVVDASVMPTLIGGNTNAPTIMIAEKAADMIKAAALEHHHHHH”: the “soluble on expression in E. coli” value was “not soluble”.

For “MAHHHHHHMFSRTGFRCAPVVEDVVAAFKVLGLAYNPRAPASSRPGVDDVRRQYLEMARLHHPDLSSGDDNRMKVINTAYELIQSSGILHGAYDAPAGAREGVAGQQGGEAGTATRFARKAGARRRRMPDDFASGDDSSWSMKTSLDWQAIMNSTETLSDEEMKNPANHPFSHSKFFTFEDDLTIYRMICGGATVRQVARSLGKPATFIERRLQNAQFKLRVQYVLRQDKRKSTAASSNGAASSGSMQQTTSTTITEPATRRALRRSPYEDAHVSSTVRKREWEPSYPEWRAPRYRDQMTLEEQGRLDGLLRETPRAAHAAGKSVSSLHSARRSAASKMGRSYENYKRLRPSF”, the “soluble on expression in E. coli” value was “not soluble”.

As for “MEELNKYKQEIKDNALKELDSTKKKINEEKKHWGDLPLTYMPISNGTMTREYAETEQFYSHVVNVKNILDSLFEEVENDIKRLDAIFCFNEYTVYGQEDIEQIKENIKNEYKTSVAHFSKLWEDIKAMSVLLRSCFNKTWDRHSEVTLLTVIQTLDESIKHRGGPNYDKNNDNFFLLRECGSALRECNTQIKMDEKNLIIRIINTKDLEGGFKKSLETLLNENESANFIKLLAEYLEGVNLNVDVQVLKENFFIFAQGIKQFYLNNVETLKD”, the “soluble on expression in E. coli” value is on record as “not soluble”.

For “MIFMFRKVLFPTDFSEGAYRAVEVFEKRNKMEVGEVILLHVIDEGTLEELMDGYSFFYDNAEIELKDIKEKLKEEASRKLQEKAEEVKRAFRAKNVRTIIRFGIPWDEIVKVAEEENVSLIILPSRGKLSLSHEFLGSTVMRVLRKTKKPVLIIKEVDENELAKTKGTSG”, the “soluble on expression in E. coli” value was “soluble”.

On to “EIKDTYNIGELSPGMTATFEGEVISALPIKEFKRADGSIGKLKSFIVRDETGSIRVTLWDNLTDIDVGRGDYVRVRGYIREGYYGGLECTANYVEILKKGEKIES”, for which the “soluble on expression in E. coli” value is “soluble”.

Source of the values: the DeepSol protein solubility set.
